Test: soluble on expression in E. coli; label from the status in PepcDB or PDB records

Sequence | soluble on expression in E. coli
MNNPDLPYRQALECLSQKQYNFTEVRRLLTEAFSAGHPAAAFELAKHLMDADSPYQDREQGMEMLRIAAEQGHPYARYNLAYIQELEGAPPETLIPLYRPLAEEGLPEAQVRLMYLLYASRHFEEALEWAKTSAKNNNPHGQYLLAQYCRYGTPPDFETAHLLYRKSAAQGLPEAHWQLGLQYRFGQGTKVDTAQAVNHLRAAAQQGYIPAYTPLAELILPTAPDEAVHWFQQAAQENDPDAHAALADIYLQGKHLERNHKLALHHAEAAAAERHPEGLRILGDICRYGLGIAPDTEKARHYYRQAAEAGSLSAYQKLISDSALNHPDQYGGIKDSAIRRQRAERLYQKAQALHYGLQCAPEYAAALKLYTEAAELGHSKAQTNLGSMYYFGQGMTADYNEARKWFEKAAAKKDSMAFYNLACIHYSGHGVEPDKEKACRYLQEAINNGYGQKSVLQELLQQWQNAV | not soluble
MNNQQAAIASARSRMAAGGQPQGATPGQPDQNFDYMFKLLIIGNSSVGKTSFLFRYCDDSFTSAFVSTVGIDFKVKTVFRGDKRVKLQIWDTAGQERYRTITTAYYRGAMGFILMYDITNEESFNSVQDWCTQIKTYSWENAQVVLVGNKCDMDSERVVSMDRGRQLADQLGLEFFETSAKENINVKAVFEKLVEIICDKMAESLDKDPQQQPKGQKLEANPTQKPAQQQCNC | not soluble
MNNQTILIIGAAGNNGMATIESLVSKQPKDTIVAAVRSTDKATLLKKKFPSIKTVIIDLDKPETLTAAYEGVTKVFMIPGNVEEREQHAKNAIDAAVQAGTVKQFLFYSVVGAEYEAILFAQQFRAGEKYLEQSGLNWTHLRTIFFQDNFFGWADGVKQGGLYFGIREGSFAPLNVADIGEMAANILTTSGHEHKAYNITGSELLSGEEMAKVFTDVTGKTVAYISPTKQQTLDSLLSTGWPQWQAEGMLELFEVFATNQAAVVSPDGEQLLGRPLTTLKDFIASNKAAFV | not soluble
MNPKSSLADGAHIGNYQIVKTLGEGSFGKVKLAYHTTTGQKVALKIINKKVLAKSDMQGRIEREISYLRLLRHPHIIKLYDVIKSKDEIIMVIEYAGNELFDYIVQRDKMSEQEARRFFQQIISAVEYCHRHKIVHRDLKPENLLLDEHLNVKIADFGLSNIMTDGNFLKTSCGSPNYAAPEVISGKLYAGPEVDVWSCGVILYVMLCRRLPFDDESIPVLFKNISNGVYTLPKFLSPGAAGLIKRMLIVNPLNRISIHEIMQDDWFKVDLPEYLLEHHHHHH | soluble
MNPLAQKLNDEIKQSSPEVLDMMSQLGKDMFYPKGILSQSAEAKRTTYNATIGMATKKEGKMYANSLNQMFNDLTPDEIFPYAPPQGVEELRDLWQKKMLKENPDLKSKSISRPIVTNALTHGLSLVADLFVDTDDTVLLPTHNWGNYKLVFSTRHGAHIDTYSIFDNSGHFTTSELVKTLKEYKKDKVIIILNYPNNPTGYTPNKEEVNTIVNAIEELANKGTKVVTVVDDAYYGLFYEEVYQQSIFTALTQVKSSNLLPVRLDGATKEFFSWGFRVGFMTFGIDHETLKNALEAKVKGLIRSNISSSPLPSQSAIKHVLKHHEQFDKEIDQNINILKERYEVTKQVVYDNKYAKYWQAYDFNSGYFMSLKLNQVDPEELREHLINNYSIGIIALNSTDIRIAFSCVEKEDIPYVFESIANAIDDIK | not soluble
MNPQTDNVFYATNAFTGEALPLAFPVHTEVEVNQAATAAAKVARDFRRLNNSKRASLLRTIASELEARSDDIIARAHLETALPEVRLTGEIARTANQLRLFADVVNSGSYHQAILDTPNPTRAPLPKPDIRRQQIALGPVAVFGASNFPLAFSAAGGDTASALAAGCPVIVKGHTAHPGTSQIVAECIEQALKQEQLPQAIFTLLQGNQRALGQALVSHPEIKAVGFTGSVGGGRALFNLAHERPEPIPFYGELGAINPTFIFPSAMRAKADLADQFVASMTMGCGQFCTKPGVVFALNTPETQAFIETAQSLIRQQSPSTLLTPGIRDSYQSQVVSRGSDDGIDVTFSQAESPCVASALFVTSSENWRKHPAWEEEIFGPQSLIVVCENVADMLSLSEMLAGSLTATIHATEEDYPQVSQLIPRLEEIAGRLVFNGWPTGVEVGYAMVHGGPYPASTHSASTSVGAEAIHRWLRPVAYQALPESLLPDSLKAENPLEIARAVDGKAAHS | soluble
MNPTVLVAEDDPVQRLLLRRALEPLGVEVRLARHGREALDLALEAPPHLVLTDLHMPHMDGLELTRRLKALDPLLPVLLFTADRDHETRLRGLEAGADDFLNRPFDLTELRLRVKGHLERRRLQEKLEDLERALLALVRAVEAKDPYTAGHAERVARYALLGARELGAGEEELRDLHMGALLHDVGKIGLPDRILRGEAPLSAADWRLIQAHPVKGDEILTPLKAHPRLRPYVRWHHEKLDGSGYPDGLTEIPLLVQVLSAADMYDALTSRRTYREAVKPEEALEALEREAREGRLALEAVRALRSGLRRGASEAKGHVLHL | soluble
MNPVEPADLVDIREQLHSGCHIVQAKGFSFLANRIINKELDAKDEKKYRKLLFDCFVVEEDILFRFLIDTLPILLIRGSNSPETLWEEFTLRAPRIRRIQRAFGMMISHCKPSFSKFLDVAARIDSEILTKICISSEFGYNFYQYIAVLSFTGLLSDSQKRLVGNCGLAQNVFLKHQPDLYPTGHESEHDPESFLRECSAEDLLSHPLHNIDPFQRHKLMRDRPAVLESKNLPNHILYLPYAVMLSQYKQVIVKLVEQSKMADHKLASENRVSGCRDTYSFAAPDFSDQDLTFETFMYHTIATGKVTSFIKYVENYHESLGILQKAHLLPALTVFLTHSSTNPSLQERICKLIALFVKKAPENADQFVLYFITLYQKPFFPIHRHLLLETIKDLFVNRFVISSAFGFLKITACLEGDRVRSLECLAEIIPKFTQLFEPMTSLCALKRDDGSDESFYAELHLLKECCKVTEDNEKALSKISNSLKECTGPRLAAIVDAVTDLIKCGVLDTIGARSMLTKRARQRGCEQSLGTYCRLLSTSTIPEENEEQARILRMSCIEELANLKQNDNHTVASEAWRSLGAFELDELEKGLKINPAQFATLFVKLRKEVQNGFIDFLSLCLHKEVESYQRPLYNTSAQDVNVSPLLTKVDTFKDKLIIENKNEPWFWSASLSLSASILQLTGPTNRAQASVRLLQSCLENVVPASSHDEMIRLMAGWRICIREVLHVLTESKSNDILWARDQIINTGRTSLTNKAESVDNIMMMLTALADAIDQQLRNIENDEQVEEVSKAQNPWLLSVYEFVATRLPKNLKEKRVAKNEPIYQLITHSNKSSLLTAIFCLRLLYLNPSVAAFYNDEDVGLTDDRMLVSLLQDSTKELKKEEIPDRKMMWVTAEAYGASQMSAKAFEVAYNIVIDEKTEKYEETELVDDESIEKFFNGLISSPKKDLKEIEQNNKKVLEKLWNNGNNEVRRKIYEGLAELALISGTGRSKMVIPAGKLPEGILKGILQLFDKKINVKPETLRNIIRCLVNHRRNDGRFLPPIDWMKFLERSEWTKADTDARLAMITLACEQNISEVIFHFSSSLTVKELLVLSENLRSVSKLFPRKEFTMILVQMAVQARKEDVETSKKLSMALSDLQKDSTVHNFLMKCLPKLFDISGITDPILNSIKDPDAFGGQISNCFDVWLEARRGEKMNIRRICDIFGKEESNSKKNAICALISHESRTLSRKMRFEKLLDVITASRIARTFGGSMQSFFSIFLSIIVSNNDTVEIPLCWFENQEHVPAMMIAAKQPFYKWIVEAPEMKSNAHHFGSFLSYYVDGPEKQYYEYWHTEGATDLLAMIVSAYPNETFPNLLTQTDEFWKSLLGIADVGK | not soluble
MNQEDNTGGGGIFGLFKWTKDALFGTDISPSMKYKDQEERRDRSRYAQDDTNFSMKFGNDSNRRSTNLSRSNSWSGLDSTLHRKYELLPEYNENGFNSIVNGDHHSKERIRSLRSPAPIVPREPLRNEPTDTFGHRLHTKRRTINELSNSQIPFIPPQEDDPLLSKLFNKDGVNEVRRSPYKLSVKDIPGKFPSPLTKRDEIDNYYVRDEDACHKNREYKKAYFDLFAQMDLNSRDLEDLCEDVREQREQFHRNEQTYKQAYEEMRAELVNELKKSKTLFENYYSLGQKYKSLKKVLDQTISHEAELATSRERLYQEEDLKNFEIQTLKQRLSDLELKYTNLQIEKDMQRDNYESEIHDLLLQLSLRNNERKDTSAGSNIFSTGQ | soluble
MNQEYLDFELPIAELEAKIEALRAASDDKVDLTDEIKRLQKKSNELTKKTFANLDAWQVSRMARHPNRPYTLDYIEHIFTEFEELAGDRAFADDKAIVGGLARLDGRPVMVIGHQKGRSVKEKVQRNFGMPAPEGYRKALRLMEMAERFKLPIITFIDTPGAYPGIGAEERGQAEAIARNLREMAQLTVPVICTVIGEGGSGGALAIGVGDKVNMLQYSTYSVISPEGCASILWKSAEKASTAAEVMGLTASRLKELNLIDSIVQEPLGGAHRSYLEIAENLKLRLKEDLAELDELSKEELLNRRYERLMSYGYC | not soluble
MNQLINITLNENQEPVVSGRDLHNVLNIKTQYTKWLERMSEYGFEENVDYIAISQKRLTAQGNRTEYIDHVLKLDMAKEIAMLQRNEKSKQVRKYFIQVEKDFNSPEKIMARALLMADKKITNLTMENNQLQLDLKEAQKQARYLDLIIESKGALRVTQIAADYGMSVNKFNKTLLEFGVQHKVNGQWILYKRHMGKGYTDSHTFDYQDKNGHTRANVTTTWTQKGRLFLYELLKDNNILPLIEQEDIV | not soluble
MNQNLLVTKRDGSTERINLDKIHRVLDWAAEGLHNVSISQVELRSHIQFYDGIKTSDIHETIIKAAADLISRDAPDYQYLAARLAIFHLRKKAYGQFEPPALYDHVVKMVEMGKYDNHLLEDYTEEEFKQMDTFIDHDRDMTFSYAAVKQLEGKYLVQNRVTGEIYESAQFLYILVAACLFSNYPRETRLQYVKRFYDAVSTFKISLPTPIMSGVRTPTRQFSSCVLIECGDSLDSINATSSAIVKYVSQRAGIGINAGRIRALGSPIRGGEAFHTGCIPFYKHFQTAVKSCSQGGVRGGAATLFYPMWHLEVESLLVLKNNRGVEGNRVRHMDYGVQINKLMYTRLLKGEDITLFSPSDVPGLYDAFFADQEEFERLYTKYEKDDSIRKQRVKAVELFSLMMQERASTGRIYIQNVDHCNTHSPFDPAIAPVRQSNLCLEIALPTKPLNDVNDENGEIALCTLSAFNLGAINNLDELEELAILAVRALDALLDYQDYPIPAAKRGAMGRRTLGIGVINFAYYLAKHGKRYSDGSANNLTHKTFEAIQYYLLKASNELAKEQGACPWFNETTYAKGILPIDTYKKDLDTIANEPLHYDWEALRESIKTHGLRNSTLSALMPSETSSQISNATNGIEPPRGYVSIKASKDGILRQVVPDYEHLHDAYELLWEMPGNDGYLQLVGIMQKFIDQSISANTNYDPSRFPSGKVPMQQLLKDLLTAYKFGVKTLYFQNTRDGAEDAQDDLVPSIQDDGCESGACKI | soluble
MNQTLLSDFGTPVERVERAIDALRNGRGVMVLDDESRENEGDMVFAAEAMTLEQMALTIRHGSGIVCLCITDERRQQLDLPMMVTHNSSQFQTAFTVTIEAAEGVTTGVSAADRLTTIRKAIADNAKPADLNRPGHVFPLRGQPGGVLSRRGHTEASIDLATLAGYKPAGVLCELTNDDGSMAHAPEVIAFAKLHDMPVVTIDDLAAYLQSRAKKAS | not soluble
MNQVAPFYADHVGSILRTKGIKDAREKFQSGEITALELRKIENTEIKYIVEKQKEVGLKSITDGEFRRAWWHFDFLENLDGVEGYDAAGGIQFSKVQTKSHSVKITGPIDFTTHPFIEDFIFLKEAVGDNHVAKQTIPSPAMLHYRGDIEYQPYLDDAEKFANDLATAYQKAIQAFYDAGCRYLQLDDTSWSYLCSDEQREVVRQRGFDPETLQETYKNLINEAIKHKPADMVITMHICRGNFRSTWIAEGGYGPVAETLFGKLNIDGFFLEYDNERSGDFAPLKYVTRPDLKIVLGLITSKTGELEDEAAIKARIEEASEIVPLSQLRLSPQCGFASTEEGNILTEEEQWDKLRYVVRLANDIWGELEHHHHHH | soluble
